± gives the uncertainty stated by the source.
assay: amyloid nucleation score (Sup35N fusion, yeast selection) (log enrichment); library NNK2; higher = more nucleation; inactive = no reads after selection
Procedure, shortened: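 Sup35N fusions to peptides of 20 random codons were expressed in psi-negative yeast, induced 24 hours with 100 μM copper sulfate, and grown 7 days at 30°C on medium lacking adenine and uracil. Input and output plasmid inserts were sequenced by Illumina. The nucleation score is the DiMSum log enrichment of output over input reads, centred on the mode score of non-aggregating sequences. Sequences with under 100 input reads were excluded.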

Substance	amyloid nucleation score
LSVPRIFGSFVWVRQ	-0.633 ± 1.1
LSVSPGSRDLREPEDSFMWS	-0.05 ± 0.3
LTAWIC	0.285 ± 1
LTCLLVRCSFVRCCVERPWS	-0.732 ± 0.54
LTCVSAR	1.2 ± 0.16
LTEVIVFYIRYMQARDRLIR	inactive
LTFACSVLL	3.1 ± 0.092
LTHIKDRVELLLGGQFISDT	0.011 ± 1.1
LTICS	-1.03 ± 0.78
LTISRSNLGARPF	-0.053 ± 0.39
LTKGRSFCVNPFHITVDGQE	-0.761 ± 0.23
LTMCICWLTQCMT	6.283 ± 0.056
LTMVWNKSFGEIHRLWVGNS	-1.58 ± 0.62
LTPIMAEKVLPYICQLLRGS	-0.228 ± 0.55
LTRGTFRIQCTLTSAWRVAR	4.62 ± 0.11
LTSKAVAYNDLACFMLS	0.613 ± 0.74
LTSWDHN	0.131 ± 0.31
LTTLKFRFFLIIKRSSAGCC	0.461 ± 0.8
LTTWNGCSDEC	-0.557 ± 1.1
LTVFTPR	-0.62 ± 0.37
LTVMSFTNNLHYLF	-0.552 ± 0.48
LTVRS	-0.42 ± 0.76

Substance	amyloid nucleation score
LTVTDG	0.104 ± 0.37
LTYAYNISYFNWVYCGYWFC	6.448 ± 0.042
LTYLTWFLSMDQGMLNWLHV	0.973 ± 0.35
LTYYTNRTQYLML	-0.424 ± 1.1
LVACMASDITNNMSRLYHLI	-1.79 ± 1.1
LVANSSVHVNSSTSNNRLAV	-0.917 ± 0.56
LVDHLGFMRMSMAGSWWVEG	0.42 ± 0.8
LVFRLDFDYVRLCPNLANTL	0.192 ± 1
LVGFALGSDTLISRY	-0.221 ± 1.1
LVGMSANNTVKYSK	0.144 ± 0.36
LVHPALVVWKQYWVVRLRDV	6.43 ± 0.044
LVIMGVCGWSGL	7.975 ± 0.038
LVKVTLRVMISV	0.099 ± 0.2
LVLYGFYVTSDLRWSLSWKM	0.766 ± 0.2
LVNWFVDYRSDVSHLQTGKV	1.08 ± 0.36
LVQLKRCQMSLWMRHYHRDE	5.951 ± 0.055
LVRPFWTLRYKTYHRSPVGR	1.59 ± 0.15
LVRPSGANPSCWAIINRGEI	10.63 ± 0.079
LVSADVCLGLMPSKSLGGRV	1.07 ± 0.54
LVSRSYD	-0.341 ± 0.79
LVVIYMTRVGASTKLRVSVL	inactive
LVWLKQGGTISMLMTCHLFA	0.477 ± 0.52

Substance	amyloid nucleation score
LVWTD	-0.018 ± 1.1
LWAGDLFDRGP	0.709 ± 0.66
LWGHLNHQWVCVSVMWVYLS	3.64 ± 0.081
LWHFVLWYMWLLIGDVVGVC	-0.459 ± 1.1
LWILNNFGTIIFRTSHYKGV	7.4 ± 0.078
LWKLYLTVSRNLAVGISGGL	inactive
LWLMVCMMYM	2.09 ± 0.15
LWLPQFEDCSREHTCEFLAI	0.237 ± 0.56
LWSVYYMSVIIFPFGKHPKQ	7.149 ± 0.056
LWVARHIRIEFMLTFRIYKA	0.011 ± 1.1
LWVFLLAWSAQLYDWSMATR	-0.12 ± 0.79
LWVIISCSDYLNWLNRGMNE	5.45 ± 0.056
LWYSL	-0.558 ± 0.5
LYCILPLRL	inactive
LYDYYQICINGGRVFSDFPC	-0.474 ± 0.79
LYFDR	-0.417 ± 1.1
LYLLM	-0.358 ± 1
LYLTWCKTLSDNLAL	-1.15 ± 0.76
LYLVVYIVASGSYACVRRST	0.546 ± 0.4
LYMVSPYRAKIRSQAFRLVT	-0.388 ± 0.33
LYNRRPFPYGYGTGLCPQRI	-0.047 ± 0.79
LYNYSSFLNTVGVGYEIFMR	-0.105 ± 1.1

Substance	amyloid nucleation score
LYQRNRLWGRKAWNTLWFSL	-0.506 ± 0.42
LYRMYPWVLVGCELFRMVCR	0.108 ± 0.38
LYRVLNTVHVSHLQTIRP	-0.064 ± 1.1
LYTQESYSDSFVNSLRCSKV	-0.064 ± 1.1
LYVFLLCNITLTSPLFNLLF	3.92 ± 0.1
LYVQLQMEVVGPGVRLTGSL	3.19 ± 0.077
LYWFMD	-1.16 ± 1.1
LYYAQSANRRLSGAWRFLF	-0.281 ± 0.79
LYYASGRIRFCLHWHLIARV	4.894 ± 0.041
LYYFGTGAICMLLNWICPGC	inactive
MACFECFTGISACNLNMRG	8.574 ± 0.026
MASITDDRADLHH	inactive
MASSFQFSDTGSELTSREAR	-0.237 ± 0.79
MCEFLIYWIYNFSFVSSPRL	0.157 ± 1
MCRFVLSASCFMYIEHRYGR	0.734 ± 0.81
MCRRANGRVLGP	5.562 ± 0.042
MCTSGGISG	0.346 ± 0.5
MDFYYLGSVCHVDLLAQYLV	inactive
MDPSICSDSLRFGLYWISRR	3.93 ± 0.12
MDVES	-0.192 ± 0.45

— the supplement of paper PMC12042874
